# Laboratory results published in patent publication US20140087995A1 (published 2014).
# Numbered stars: 1 amine (or outer) side, 2 acyl side, 3 side chain; on linkers, the order of the positions; unused ones are H or OH. Bridge positions count the residues as written; N and C are the ends. Side chains are listed from the residue outwards. Ends that are not written are not given here. * marks the point of attachment. C20 diacid = O=C(O)CCCCCCCCCCCCCCCCCCC(=O)*; γGlu = O=C(O)[C@H](CCC(=O)[*:2])N[*:1]; AEEA = NCCOCCOCC(=O)O
# T1: human calcitonin receptor (human, UniProt P30988 25-474)
# T1 construct: whole, on cells; Assayed as cell membranes of BHK tk'ts 13 cells stably transfected with the human calcitonin receptor (Assay VII); also called hCTR; hCT
# T1 sequence (looked up): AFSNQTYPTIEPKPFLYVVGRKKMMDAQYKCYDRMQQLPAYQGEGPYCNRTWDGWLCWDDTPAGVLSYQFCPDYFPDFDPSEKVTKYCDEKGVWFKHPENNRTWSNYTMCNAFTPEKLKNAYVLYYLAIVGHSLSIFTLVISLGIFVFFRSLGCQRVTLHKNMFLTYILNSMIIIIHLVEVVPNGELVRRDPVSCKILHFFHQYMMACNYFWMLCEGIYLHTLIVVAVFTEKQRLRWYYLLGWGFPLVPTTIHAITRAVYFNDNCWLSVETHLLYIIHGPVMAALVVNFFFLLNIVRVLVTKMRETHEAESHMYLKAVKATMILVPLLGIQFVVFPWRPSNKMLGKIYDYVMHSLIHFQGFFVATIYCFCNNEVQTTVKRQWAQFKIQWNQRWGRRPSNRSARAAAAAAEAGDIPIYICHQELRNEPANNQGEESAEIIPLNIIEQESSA
# B1: N^ε1-[2-[2-[2-[[(4S)-4-carboxy-4-(19-carboxynonadecanoylamino)butanoyl]amino]ethoxy]ethoxy]acetyl]-[Ala14,Arg17,Pro21,Pro27,Pro31]-h-amylin (peptide)
# peptide: K([AEEA-γGlu-C20 diacid])CNTATCATQRLAAFLRHSSPNFGAIPSSTPVGSNTY-NH2
# modifications: disulfide 2-7; N-terminus assumed
# SMILES: CC[C@H](C)[C@H](NC(=O)[C@H](C)NC(=O)CNC(=O)[C@H](Cc1ccccc1)NC(=O)[C@H](CC(N)=O)NC(=O)[C@@H]1CCCN1C(=O)[C@H](CO)NC(=O)[C@H](CO)NC(=O)[C@H](Cc1c[nH]cn1)NC(=O)[C@H](CCCNC(=N)N)NC(=O)[C@H](CC(C)C)NC(=O)[C@H](Cc1ccccc1)NC(=O)[C@H](C)NC(=O)[C@H](C)NC(=O)[C@H](CC(C)C)NC(=O)[C@H](CCCNC(=N)N)NC(=O)[C@H](CCC(N)=O)NC(=O)[C@@H](NC(=O)[C@H](C)NC(=O)[C@@H]1CSSC[C@H](NC(=O)[C@@H](N)CCCCNC(=O)COCCOCCNC(=O)CC[C@H](NC(=O)CCCCCCCCCCCCCCCCCCC(=O)O)C(=O)O)C(=O)N[C@@H](CC(N)=O)C(=O)N[C@@H]([C@@H](C)O)C(=O)N[C@@H](C)C(=O)N[C@@H]([C@@H](C)O)C(=O)N1)[C@@H](C)O)C(=O)N1CCC[C@H]1C(=O)N[C@@H](CO)C(=O)N[C@@H](CO)C(=O)N[C@H](C(=O)N1CCC[C@H]1C(=O)N[C@H](C(=O)NCC(=O)N[C@@H](CO)C(=O)N[C@@H](CC(N)=O)C(=O)N[C@H](C(=O)N[C@@H](Cc1ccc(O)cc1)C(N)=O)[C@@H](C)O)C(C)C)[C@@H](C)O
# notes: also called compound 72
# B2: N^ε1-[2-[2-[2-[[(4S)-4-carboxy-4-(19-carboxynonadecanoylamino)butanoyl]amino]ethoxy]ethoxy]acetyl]-[Arg14,Arg17,Pro21,Pro27]-h-amylin (peptide)
# peptide: K([AEEA-γGlu-C20 diacid])CNTATCATQRLARFLRHSSPNFGAIPSSTNVGSNTY-NH2
# modifications: disulfide 2-7; N-terminus assumed
# SMILES: CC[C@H](C)[C@H](NC(=O)[C@H](C)NC(=O)CNC(=O)[C@H](Cc1ccccc1)NC(=O)[C@H](CC(N)=O)NC(=O)[C@@H]1CCCN1C(=O)[C@H](CO)NC(=O)[C@H](CO)NC(=O)[C@H](Cc1c[nH]cn1)NC(=O)[C@H](CCCNC(=N)N)NC(=O)[C@H](CC(C)C)NC(=O)[C@H](Cc1ccccc1)NC(=O)[C@H](CCCNC(=N)N)NC(=O)[C@H](C)NC(=O)[C@H](CC(C)C)NC(=O)[C@H](CCCNC(=N)N)NC(=O)[C@H](CCC(N)=O)NC(=O)[C@@H](NC(=O)[C@H](C)NC(=O)[C@@H]1CSSC[C@H](NC(=O)[C@@H](N)CCCCNC(=O)COCCOCCNC(=O)CC[C@H](NC(=O)CCCCCCCCCCCCCCCCCCC(=O)O)C(=O)O)C(=O)N[C@@H](CC(N)=O)C(=O)N[C@@H]([C@@H](C)O)C(=O)N[C@@H](C)C(=O)N[C@@H]([C@@H](C)O)C(=O)N1)[C@@H](C)O)C(=O)N1CCC[C@H]1C(=O)N[C@@H](CO)C(=O)N[C@@H](CO)C(=O)N[C@H](C(=O)N[C@@H](CC(N)=O)C(=O)N[C@H](C(=O)NCC(=O)N[C@@H](CO)C(=O)N[C@@H](CC(N)=O)C(=O)N[C@H](C(=O)N[C@@H](Cc1ccc(O)cc1)C(N)=O)[C@@H](C)O)C(C)C)[C@@H](C)O
# notes: also called compound 82
# B3: N^ε1-[2-[2-[2-[[(4S)-4-carboxy-4-(19-carboxynonadecanoylamino)butanoyl]amino]ethoxy]ethoxy]acetyl]-[Arg17,Pro21,Pro27,Arg34]-h-amylin (peptide)
# peptide: K([AEEA-γGlu-C20 diacid])CNTATCATQRLANFLRHSSPNFGAIPSSTNVGRNTY-NH2
# modifications: disulfide 2-7; N-terminus assumed
# SMILES: CC[C@H](C)[C@H](NC(=O)[C@H](C)NC(=O)CNC(=O)[C@H](Cc1ccccc1)NC(=O)[C@H](CC(N)=O)NC(=O)[C@@H]1CCCN1C(=O)[C@H](CO)NC(=O)[C@H](CO)NC(=O)[C@H](Cc1c[nH]cn1)NC(=O)[C@H](CCCNC(=N)N)NC(=O)[C@H](CC(C)C)NC(=O)[C@H](Cc1ccccc1)NC(=O)[C@H](CC(N)=O)NC(=O)[C@H](C)NC(=O)[C@H](CC(C)C)NC(=O)[C@H](CCCNC(=N)N)NC(=O)[C@H](CCC(N)=O)NC(=O)[C@@H](NC(=O)[C@H](C)NC(=O)[C@@H]1CSSC[C@H](NC(=O)[C@@H](N)CCCCNC(=O)COCCOCCNC(=O)CC[C@H](NC(=O)CCCCCCCCCCCCCCCCCCC(=O)O)C(=O)O)C(=O)N[C@@H](CC(N)=O)C(=O)N[C@@H]([C@@H](C)O)C(=O)N[C@@H](C)C(=O)N[C@@H]([C@@H](C)O)C(=O)N1)[C@@H](C)O)C(=O)N1CCC[C@H]1C(=O)N[C@@H](CO)C(=O)N[C@@H](CO)C(=O)N[C@H](C(=O)N[C@@H](CC(N)=O)C(=O)N[C@H](C(=O)NCC(=O)N[C@@H](CCCNC(=N)N)C(=O)N[C@@H](CC(N)=O)C(=O)N[C@H](C(=O)N[C@@H](Cc1ccc(O)cc1)C(N)=O)[C@@H](C)O)C(C)C)[C@@H](C)O
# notes: also called compound 78
# B4: N^ε1-[2-[2-[2-[[(4S)-4-carboxy-4-(19-carboxynonadecanoylamino)butanoyl]amino]ethoxy]ethoxy]acetyl]-[Arg14,Arg17,Pro21,Pro27,Pro31]-h-amylin (peptide)
# peptide: K([AEEA-γGlu-C20 diacid])CNTATCATQRLARFLRHSSPNFGAIPSSTPVGSNTY-NH2
# modifications: disulfide 2-7; N-terminus assumed
# SMILES: CC[C@H](C)[C@H](NC(=O)[C@H](C)NC(=O)CNC(=O)[C@H](Cc1ccccc1)NC(=O)[C@H](CC(N)=O)NC(=O)[C@@H]1CCCN1C(=O)[C@H](CO)NC(=O)[C@H](CO)NC(=O)[C@H](Cc1c[nH]cn1)NC(=O)[C@H](CCCNC(=N)N)NC(=O)[C@H](CC(C)C)NC(=O)[C@H](Cc1ccccc1)NC(=O)[C@H](CCCNC(=N)N)NC(=O)[C@H](C)NC(=O)[C@H](CC(C)C)NC(=O)[C@H](CCCNC(=N)N)NC(=O)[C@H](CCC(N)=O)NC(=O)[C@@H](NC(=O)[C@H](C)NC(=O)[C@@H]1CSSC[C@H](NC(=O)[C@@H](N)CCCCNC(=O)COCCOCCNC(=O)CC[C@H](NC(=O)CCCCCCCCCCCCCCCCCCC(=O)O)C(=O)O)C(=O)N[C@@H](CC(N)=O)C(=O)N[C@@H]([C@@H](C)O)C(=O)N[C@@H](C)C(=O)N[C@@H]([C@@H](C)O)C(=O)N1)[C@@H](C)O)C(=O)N1CCC[C@H]1C(=O)N[C@@H](CO)C(=O)N[C@@H](CO)C(=O)N[C@H](C(=O)N1CCC[C@H]1C(=O)N[C@H](C(=O)NCC(=O)N[C@@H](CO)C(=O)N[C@@H](CC(N)=O)C(=O)N[C@H](C(=O)N[C@@H](Cc1ccc(O)cc1)C(N)=O)[C@@H](C)O)C(C)C)[C@@H](C)O
# notes: also called compound 64
# Target: T1, human calcitonin receptor
# Test: IC50 at hCTR divided by IC50 at hAmylin-R (SPA competition assays V and VII)
# Method: The resulting pellet was resuspended, homogenized and centrifuged (20.000 rpm, 15 min) in a buffer containing 20 mM Na-HEPES and 0.1 mM EDTA (pH 7.4, buffer 2). The resulting pellet was resuspended in buffer 2 and protein concentration was measured (BCA protein Assay, Pierce). The homogenate was kept cold during the whole procedure. The membranes were kept at −80° C. until use. The assay was performed in a 384 well Optiplate (PerkinElmer) in a total volume of 40 ul. Membranes were mixed with SPA beads. Final concentration of membranes 35 ng/μL final and SPA beads was 0.05 mg/well. Test-compounds were dissolved in DMSO and further diluted in assay buffer (50 mM Hepes, pH 7.4, 1 mM CaCl2, 5 mM MgCl₂, 0.1% OA and 0.02% Tween20). […] The final mixture was incubated with shaking at 400 rpm for 120 min at 25° C. prior to centrifugation (1500 rpm, 10 min). Samples were analyzed on TopCounter™ (Packard). The IC₅₀ was calculated using (one site binding competition analysis) GraphPad Prism5 as a measure of receptor affinity.
# Membranes were prepared in the following way; the cells were rinsed with PBS and incubated with Versene for approximately 5 min before harvesting. The cells were flushed with PBS and the cell-suspension was centrifuged for 5 min at 1000 rpm. Cells were homogenized (Ultrathurrax) in a buffer containing 20 mM Na-HEPES and 10 mM EDTA (pH 7.4) and centrifuged at 20.000 rpm for 15 min. The resulting pellet was resuspended, homogenized and centrifuged (20.000 rpm, 15 min) in a buffer containing 20 mM Na-HEPES and 0.1 mM EDTA (pH 7.4, buffer 2). The resulting pellet was resuspended in buffer 2 and protein concentration was measured (BCA protein Assay, Pierce). The homogenate was kept cold during the whole procedure. The membranes were kept at −80° C. until use. Assay was performed in a 384 well Optiplate (PerkinElmer) in a total volume of 40 ul. Membranes were mixed with SPA beads.
row,Ratio hCT/hAmylin binding,Binder
1,247,B1
2,140,B2
3,60.7,B3
4,126,B4

# Target: T1, human calcitonin receptor
# Test: SPA competition vs 125I-calcitonin, membranes of BHK cells with human calcitonin receptor (Assay VII)
# Method: Membranes were prepared in the following way; the cells were rinsed with PBS and incubated with Versene for approximately 5 min before harvesting. The cells were flushed with PBS and the cell-suspension was centrifuged for 5 min at 1000 rpm. Cells were homogenized (Ultrathurrax) in a buffer containing 20 mM Na-HEPES and 10 mM EDTA (pH 7.4) and centrifuged at 20.000 rpm for 15 min. The resulting pellet was resuspended, homogenized and centrifuged (20.000 rpm, 15 min) in a buffer containing 20 mM Na-HEPES and 0.1 mM EDTA (pH 7.4, buffer 2). The resulting pellet was resuspended in buffer 2 and protein concentration was measured (BCA protein Assay, Pierce). The homogenate was kept cold during the whole procedure. The membranes were kept at −80° C. until use. Assay was performed in a 384 well Optiplate (PerkinElmer) in a total volume of 40 ul. Membranes were mixed with SPA beads. Final concentration of membranes 35 ng/μL final and Final concentration of SPA beads was 0.05 mg/well. Test-compounds were dissolved in DMSO and further diluted in assay buffer (50 mM Hepes, pH 7.4, 1 mM CaCl2, 5 mM MgCl₂, 0.1% OA and 0.02% Tween20). […] The final mixture was incubated for 120 min with shaking at 400 rpm at 25° C. prior to centrifugation (1500 rpm, 10 min). Samples were analyzed on TopCounter™ (Packard). The […] was calculated using (one site binding competition analysis) GraphPad Prism5 as a measure of receptor affinity.
row,IC50 [nM],Binder
1,42.4,B1
2,88.8,B2
3,36.5,B3
4,56,B4
